# Results: patent publication US20180237527A1 (METIS PRECISION MEDICINE SB S R L, published 2018)
# B1: chimerized DN30 Fab (MvDN30) (Fab)
# heavy: QVQLQQPGTELVKPGASVKLSCKASGYTFTSYWIHWVKQRPGQGLEWIGEINPSSGRTNYNEKFKNKVTVTVDKSSTTAYMQLSNLTSEDSAVYYCASRGYWGQGTTLTVSSASTKGPSVFPLAPSSKSTSGGTAALGCLVKDYFPEPVTVSWNSGALTSGVHTFPAVLQSSGLYSLSSVVTVPSSSLGTQTYICNVNHKPSNTKVDKKVEPKSC
# light: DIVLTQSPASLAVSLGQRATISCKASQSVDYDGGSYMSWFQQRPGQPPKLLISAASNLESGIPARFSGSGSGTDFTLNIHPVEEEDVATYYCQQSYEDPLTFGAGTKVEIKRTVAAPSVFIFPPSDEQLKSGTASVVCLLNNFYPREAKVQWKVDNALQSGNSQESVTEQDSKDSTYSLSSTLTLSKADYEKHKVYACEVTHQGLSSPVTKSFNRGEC
# notes: also called chimeric MvDN30; chimeric DN30 Fab
# B2: DCD-MvDN30.2 (Dual Constant Domain Fab with the duplicated constant domains swapped reciprocally) (Fab)
# heavy: QVQLQQPGTELVKPGASVKLSCKASGYTFTSYWIHWVKQRPGQGLEWIGEINPSSGRTNYNEKFKNKVTVTVDKSSTTAYMQLSNLTSEDSAVYYCASRGYWGQGTTLTVSSASTKGPSVFPLAPSSKSTSGGTAALGCLVKDYFPEPVTVSWNSGALTSGVHTFPAVLQSSGLYSLSSVVTVPSSSLGTQTYICNVNHKPSNTKVDKKVEPKSCTVAAPSVFIFPPSDEQLKSGTASVVCLLNNFYPREAKVQWKVDNALQSGNSQESVTEQDSKDSTYSLSSTLTLSKADYEKHKVYACEVTHQGLSSPVTKSFNRGEC
# light: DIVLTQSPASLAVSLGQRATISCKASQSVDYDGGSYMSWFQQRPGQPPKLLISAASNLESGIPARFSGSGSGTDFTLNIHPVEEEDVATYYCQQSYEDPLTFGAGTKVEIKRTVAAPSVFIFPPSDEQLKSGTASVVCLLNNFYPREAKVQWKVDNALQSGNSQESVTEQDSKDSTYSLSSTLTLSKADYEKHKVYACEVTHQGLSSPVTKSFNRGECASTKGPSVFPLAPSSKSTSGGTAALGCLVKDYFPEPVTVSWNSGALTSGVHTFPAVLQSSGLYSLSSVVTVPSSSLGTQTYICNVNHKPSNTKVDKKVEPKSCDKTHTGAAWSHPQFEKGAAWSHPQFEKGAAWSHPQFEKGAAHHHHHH
# notes: also called DCD-Fab
# B3: DCD-MvDN30.1 (Dual Constant Domain Fab with the duplicated constant domains in tandem) (Fab)
# heavy: QVQLQQPGTELVKPGASVKLSCKASGYTFTSYWIHWVKQRPGQGLEWIGEINPSSGRTNYNEKFKNKVTVTVDKSSTTAYMQLSNLTSEDSAVYYCASRGYWGQGTTLTVSSASTKGPSVFPLAPSSKSTSGGTAALGCLVKDYFPEPVTVSWNSGALTSGVHTFPAVLQSSGLYSLSSVVTVPSSSLGTQTYICNVNHKPSNTKVDKKVEPKSCASTKGPSVFPLAPSSKSTSGGTAALGCLVKDYFPEPVTVSWNSGALTSGVHTFPAVLQSSGLYSLSSVVTVPSSSLGTQTYICNVNHKPSNTKVDKKVEPKSCDKTHTGAAWSHPQFEKGAAWSHPQFEKGAAWSHPQFEKGAAHHHHHH
# light: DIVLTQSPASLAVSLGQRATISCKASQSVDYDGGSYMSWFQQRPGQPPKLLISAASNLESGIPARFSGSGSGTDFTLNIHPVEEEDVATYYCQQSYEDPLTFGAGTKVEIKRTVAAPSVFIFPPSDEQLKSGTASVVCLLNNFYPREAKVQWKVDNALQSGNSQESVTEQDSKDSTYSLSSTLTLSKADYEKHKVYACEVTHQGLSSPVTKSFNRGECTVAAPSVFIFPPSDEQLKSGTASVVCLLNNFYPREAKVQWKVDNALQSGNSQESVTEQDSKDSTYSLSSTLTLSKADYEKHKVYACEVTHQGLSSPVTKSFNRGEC
# notes: also called DCD-Fab
# Target: T1, Met-Fc chimera (human, UniProt P08581 25-932)
# T1 construct: extracellular domain;domain: Fc domain; Bought from R&D Systems; also called Fc-Met; Met ectodomain; not shown: Fc domain derived from a human IgG
# Assay: ELISA, Met-Fc chimera in solid phase, antibody fragment in liquid phase, anti-strepTAG detection
# Method: Purified DCD-MvDN30.1 and DCD-MvDN30.2 were characterized for their ability to bind the Met receptor. To this end, the present inventors performed ELISA assays using Met ectodomain in solid phase and MvDN30, DCD-MvDN30.1 and DCD-MvDN30.2 in liquid phase.
# […] […] Data were analyzed and fit using Prism software (Graph Pad Software, San Diego, Calif.). Met-Fc chimera is a fusion protein wherein the Fc domain derived from a human IgG is fused in frame with the Met extracellular portion.
# T1 sequence (P08581 25-932, change not shown): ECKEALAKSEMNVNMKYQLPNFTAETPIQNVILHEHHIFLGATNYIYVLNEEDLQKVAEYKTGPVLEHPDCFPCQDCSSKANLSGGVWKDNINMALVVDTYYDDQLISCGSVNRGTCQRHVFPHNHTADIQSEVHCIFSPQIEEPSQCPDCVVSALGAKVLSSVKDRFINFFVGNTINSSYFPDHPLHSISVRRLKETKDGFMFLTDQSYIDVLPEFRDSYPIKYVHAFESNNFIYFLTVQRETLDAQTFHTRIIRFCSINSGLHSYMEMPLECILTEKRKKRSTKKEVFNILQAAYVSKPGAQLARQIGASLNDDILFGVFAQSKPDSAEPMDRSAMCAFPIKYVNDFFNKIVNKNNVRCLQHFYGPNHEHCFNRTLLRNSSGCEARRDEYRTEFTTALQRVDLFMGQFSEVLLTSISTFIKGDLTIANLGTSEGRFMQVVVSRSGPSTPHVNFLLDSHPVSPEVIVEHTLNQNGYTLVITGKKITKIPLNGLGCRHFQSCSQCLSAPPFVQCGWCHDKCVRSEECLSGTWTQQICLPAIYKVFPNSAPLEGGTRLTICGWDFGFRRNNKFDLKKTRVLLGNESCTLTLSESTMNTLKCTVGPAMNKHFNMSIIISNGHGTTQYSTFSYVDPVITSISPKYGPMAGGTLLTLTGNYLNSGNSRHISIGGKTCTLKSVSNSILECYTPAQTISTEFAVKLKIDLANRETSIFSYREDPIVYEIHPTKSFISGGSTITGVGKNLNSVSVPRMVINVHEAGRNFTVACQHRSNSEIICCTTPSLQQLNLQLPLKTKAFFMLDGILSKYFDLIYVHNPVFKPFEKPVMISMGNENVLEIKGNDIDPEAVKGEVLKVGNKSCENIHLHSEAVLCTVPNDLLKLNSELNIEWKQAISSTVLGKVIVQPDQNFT
row,Binder,Kd [nM]
1,B1,0.141
2,B2,0.13
3,B3,0.133
